{"source": "the supplement of paper PMC12042874", "note": "± gives the uncertainty stated by the source."}
{"experiment": "amyloid nucleation score (Sup35N fusion, yeast selection) (log enrichment); library NNK2; higher = more nucleation; inactive = no reads after selection", "how_it_was_run": "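The nucleation score is a DiMSum log enrichment of output over input reads, centred on the mode score of non-aggregating sequences. Sequences under 100 input reads were excluded, and reads came from Illumina sequencing of plasmid inserts. Psi-negative yeast expressing Sup35N fused to peptides of 20 random codons were induced with 100 μM copper sulfate for 24 hours and grown 7 days at 30°C on medium lacking adenine and uracil. Random libraries had three technical output replicates.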"}
{"substance": "HIVRNYFTLTSCAHTIHFAD", "amyloid nucleation score": "-0.861 ± 1"}
{"substance": "FFYQVWGNN", "amyloid nucleation score": "2.26 ± 0.11"}
{"substance": "FRTASLHVCLFLSG", "amyloid nucleation score": "-0.316 ± 0.61"}
{"substance": "SYRSRVQYLCGNSMCLHAPI", "amyloid nucleation score": "5.15 ± 0.098"}
{"substance": "GGNVLRE", "amyloid nucleation score": "-0.527 ± 0.35"}
{"substance": "YGRCNGLSGCQRGSCSREGG", "amyloid nucleation score": "0.483 ± 0.46"}
{"substance": "YACFDCIIIQAWKFSIGTGL", "amyloid nucleation score": "3.7 ± 0.051"}
{"substance": "RYTWWWHSLFMSDSVAMNSA", "amyloid nucleation score": "-0.334 ± 0.42"}
{"substance": "LRYSTSHSKNRRSDALNIKG", "amyloid nucleation score": "-0.739 ± 0.45"}
{"substance": "SLTVFHLKYMSQNIKAE", "amyloid nucleation score": "-0.797 ± 1"}
{"substance": "YVYWWTYERMVSWSIYCVNT", "amyloid nucleation score": "2.96 ± 0.097"}
{"substance": "VKEVRLPGTRILGRLAGSFR", "amyloid nucleation score": "inactive"}
{"substance": "TCLAKLLFCKSTSKDRV", "amyloid nucleation score": "0.063 ± 1.1"}
{"substance": "GTTWLTVLALVALSEISCRM", "amyloid nucleation score": "0.384 ± 0.28"}
{"substance": "RCILASAGWAIVGKNCEAPQ", "amyloid nucleation score": "0.647 ± 0.26"}
{"substance": "YLLLNYQACTMLDWNWVWVW", "amyloid nucleation score": "5.31 ± 0.071"}
{"substance": "MFYASFGVKL", "amyloid nucleation score": "0.655 ± 0.65"}
{"substance": "VFLLTLRCCWEFVLCADGP", "amyloid nucleation score": "1.29 ± 0.36"}
{"substance": "NCHMR", "amyloid nucleation score": "-0.19 ± 0.34"}
{"substance": "SLSYATTFF", "amyloid nucleation score": "0.476 ± 0.24"}
{"substance": "CTSYTEDFLWCFHNVTWKVR", "amyloid nucleation score": "0.105 ± 0.8"}
{"substance": "MMLNSINLKYLIWLCN", "amyloid nucleation score": "2.73 ± 0.06"}
{"substance": "YSWVGLCPLIGRLYTGFAN", "amyloid nucleation score": "-1.71 ± 0.54"}
{"substance": "RISDDWVYLLCSCKGQGFLW", "amyloid nucleation score": "0.157 ± 1"}
{"substance": "RHHYHSYGSTLVKVRAGQRC", "amyloid nucleation score": "4.88 ± 0.077"}
{"substance": "FCAMGGPSRGLVNRWFGS", "amyloid nucleation score": "-0.746 ± 0.41"}
{"substance": "WALSHYVCNTYYSNHSVSNT", "amyloid nucleation score": "5.57 ± 0.052"}
{"substance": "LKHKHRNMRITCSASI", "amyloid nucleation score": "-0.269 ± 0.25"}
{"substance": "VILRVIGIIMRDNKFSHDVR", "amyloid nucleation score": "inactive"}
{"substance": "NWSHELQIQLCAMAYREWSE", "amyloid nucleation score": "5.777 ± 0.038"}
{"substance": "MLVLFADRRSMRDLDNTGFV", "amyloid nucleation score": "0.029 ± 0.79"}
{"substance": "GVMSPHVTTFNILCVNNVLC", "amyloid nucleation score": "8.72 ± 0.07"}
{"substance": "RLIKTHVVKLFQSRWWVIGD", "amyloid nucleation score": "0.631 ± 0.51"}
{"substance": "LYRSSLRFMPTIICETVWMY", "amyloid nucleation score": "inactive"}
{"substance": "PMFCSLVLRI", "amyloid nucleation score": "-0.383 ± 0.41"}
{"substance": "IFSTFCFLSAILFSIFPYEP", "amyloid nucleation score": "inactive"}
{"substance": "YEHRNGLWSMKKRLIG", "amyloid nucleation score": "0.253 ± 0.31"}
{"substance": "KGVCRNMAGGKYANMRYGGV", "amyloid nucleation score": "5.09 ± 0.051"}
{"substance": "HAMLRTDILICCITH", "amyloid nucleation score": "9.805 ± 0.065"}
{"substance": "FSGRKPSIVLHHSSECQP", "amyloid nucleation score": "2.38 ± 0.2"}
{"substance": "GMYGLCF", "amyloid nucleation score": "-0.524 ± 0.64"}
{"substance": "MGCICWVDCKPYDFGMTVVM", "amyloid nucleation score": "-0.726 ± 0.49"}
{"substance": "YKWWCSW", "amyloid nucleation score": "-0.62 ± 0.76"}
{"substance": "STSSSLAR", "amyloid nucleation score": "0.867 ± 0.22"}
{"substance": "ISPIVEIGRASTVTLSDISV", "amyloid nucleation score": "4.71 ± 0.054"}
{"substance": "KTLWPGTWGGLITRVWWYTR", "amyloid nucleation score": "0.471 ± 0.18"}
{"substance": "LARSLSVNQYKPNLLFVGCD", "amyloid nucleation score": "-1.52 ± 1.1"}
{"substance": "LGYLIPNDEYFILWVIVCWN", "amyloid nucleation score": "-0.024 ± 1"}
{"substance": "QDKYTSEECESRFVTYETVV", "amyloid nucleation score": "0.695 ± 0.57"}
{"substance": "CSPCFLSCGPYNNGPE", "amyloid nucleation score": "7.537 ± 0.074"}
{"substance": "CTHWLDPDFVL", "amyloid nucleation score": "-0.666 ± 0.79"}
{"substance": "RFRTKLECPYMIS", "amyloid nucleation score": "0.453 ± 0.35"}
{"substance": "NDGCIGVFFDRMVPDWVTTL", "amyloid nucleation score": "-0.477 ± 0.48"}
{"substance": "PSVFEGRK", "amyloid nucleation score": "-0.843 ± 0.63"}
{"substance": "TLGSLLLLMSWVEGLQKHLI", "amyloid nucleation score": "0.888 ± 0.48"}
{"substance": "ADIAWSCRLESNCFPTLSMM", "amyloid nucleation score": "0.255 ± 0.33"}
{"substance": "FSSSEHVFQVDGGFDKNRPI", "amyloid nucleation score": "-1.47 ± 0.78"}
{"substance": "LMFTCVMSFWRLSVRVILNY", "amyloid nucleation score": "0.277 ± 0.41"}
{"substance": "RSFRECQDCGMQMFISRRLV", "amyloid nucleation score": "0.15 ± 0.18"}
{"substance": "NWLSMWLWFVCMSLVCMVFR", "amyloid nucleation score": "1.77 ± 0.16"}
{"substance": "EVGVV", "amyloid nucleation score": "0.622 ± 0.18"}
{"substance": "KKRLCDTSTIFQINNLHRMM", "amyloid nucleation score": "-1.32 ± 0.76"}
{"substance": "ILFCLF", "amyloid nucleation score": "8.143 ± 0.033"}
{"substance": "KRTWFERLWSSSNRVLGCLC", "amyloid nucleation score": "4.27 ± 0.051"}
{"substance": "QGLCRV", "amyloid nucleation score": "4 ± 0.069"}
{"substance": "GRWKDRFCTVGMLYSRG", "amyloid nucleation score": "-0.316 ± 0.45"}
{"substance": "RRLYF", "amyloid nucleation score": "-0.561 ± 0.52"}
{"substance": "CILLPKVSCCCKGLICCDFV", "amyloid nucleation score": "0.186 ± 0.34"}
{"substance": "FENIDGWRLFIIARRRAIGG", "amyloid nucleation score": "-1 ± 1"}
{"substance": "YPNRFINTCFVRCNISLNNY", "amyloid nucleation score": "8.485 ± 0.061"}
{"substance": "FINRPVKRKLNSSNIYICV", "amyloid nucleation score": "3.16 ± 0.14"}
{"substance": "AKVCLYIAICLSLVNS", "amyloid nucleation score": "2.98 ± 0.065"}
{"substance": "LAFTFRSTRRTTSHSEVSSS", "amyloid nucleation score": "1.38 ± 0.43"}
{"substance": "VYTTDLPFIYVLSVFMFIHG", "amyloid nucleation score": "-0.447 ± 0.27"}
{"substance": "VDRYLSHCVGKGLDF", "amyloid nucleation score": "-0.55 ± 0.56"}
{"substance": "NITDDRMSSWIRFVILVSTV", "amyloid nucleation score": "-0.074 ± 0.56"}
{"substance": "YFISDEIVQSNIFSLIGWFC", "amyloid nucleation score": "8.556 ± 0.042"}
{"substance": "MTSYAWMNTSSM", "amyloid nucleation score": "inactive"}
{"substance": "VVWGERVHGIWLMCYCNWTG", "amyloid nucleation score": "5.51 ± 0.091"}
{"substance": "DWWLLYNCRSRMMGIKADPL", "amyloid nucleation score": "inactive"}
{"substance": "ASLFFM", "amyloid nucleation score": "0.707 ± 0.34"}
{"substance": "DDSNCNNHGRVDDKVR", "amyloid nucleation score": "4.9 ± 0.038"}
{"substance": "SIRSRLEFSFFL", "amyloid nucleation score": "3.45 ± 0.047"}
{"substance": "VPSFRYCTSYQTATSLR", "amyloid nucleation score": "0.17 ± 0.33"}
{"substance": "WVMAISLADFVLYLNWSLYR", "amyloid nucleation score": "inactive"}
{"substance": "WRCSSISCDCDARLGRMRVS", "amyloid nucleation score": "0.697 ± 0.42"}
